Columns and labels:
[1] = system: E8 chick ciliary ganglion neurons; experiment: Survival of dissociated E8 chick ciliary ganglion neurons; type: cell-based; details: dissociated, neuron-enriched E8 chick ciliary ganglion cultures
From the text: Ciliary neurotrophic factor activity may be evaluated using any CNTF-sensitive in vivo or in vitro system known in the art. For example, and not by way of limitation, in vitro systems have been developed which measure CNTF activity by quantitating 24-hour survival of embryonic (E8) chick ciliary ganglion (CG) neurons in monolayer cultures.
For example, ciliary ganglia may be collected from E8 chick embryos, dissociated (yielding approximately 20,000 cells per ganglion) and then diluted in HEBM medium containing 20 percent horse serum as described in Varon et al. (1979, Brain Res. 173:29-45). About fifty microliters of cell suspension containing neurons (2,000 cells) may then be seeded into microliter dishes and putative CNTF activity may be added. Culture plates may then be maintained at 37° C. in 5% CO2 for 24 hours, after which the cultures may be fixed by the addition of 200 μl 2 per cent glutaraldehyde in HEBM medium, and the number of surviving neurons may be determined visually by direct count under phase contrast microscopy.
Chick embryo ciliary ganglion cultures were created and maintained according to the method set forth in (Hughes et al., 1988, Nature 335 : 70-73).
Biological activity of recombinant CNTF was assayed on explants of chick embryo dorsal root ganglia (DRG) and dissociated cultures of ciliary ganglion (CG) neurons as described in Lindsay and Rohrer (1985, Devel. Biol 112:30-48). Briefly, DRG were dissected from chick embryos of 10 days incubation (E10) and 5-6 ganglia were explanted in 1 ml of a collagen gel matrix in 35 mm tissue culture dishes. After the gel had set, 1 ml of tissue culture growth medium F14 (Imperial Labs., U.K.) supplemented with 5% heat-inactivated horse serum (GIBCO) was added before adding human CNTF (1-20 l) to a final concentration of 100 pg to 100 ng/ml. CG were dissected from E8 chick embryos and incubated for 30 min in 0.25% trypsin (Worthington) in calcium- and magnesium-free phosphate buffered saline. The ganglia were then washed three times in F14 medium containing 5% horse serum before being dissociated to a single cell suspension by trituration through the bore of a Pasteur pipette. Enrichment for CG neurons was achieved by plating the cell suspension for 3.5 hr in a 60 mm dish, during which non-neuronal cells (fibroblasts and Schwann cells) attached firmly to the plastic while phase-bright neurons remained in suspension. The purified neurons were plated on polyornithine-laminin-coated 35 mm culture dishes at 8,000-10,000 neurons/dish. In explant cultures CNTF activity was determined by assessing the extent of fiber outgrowth in treated cultures compared to controls. Fiber outgrowth was scored on a scale of 0 to 5+, by comparing cultures to photographs of a dose-response of explanted DRG and NGF. In dissociated CG neuron cultures, CNTF activity was determined by counting at 48 hr the percentage of process-bearing neurons in control and CNTF-treated cultures. In all cases results were derived from triplicate cultures.

[2] = system: E10 rat ciliary ganglion neurons; experiment: Survival and neurite outgrowth of ciliary ganglion neurons with E. coli protein extract; type: cell-based
Procedure: (§1) In addition, protein extracts were prepared from the same cells lysed by treatment with lysozyme followed by three cycles of freezing and thawing. […] No such activity could be detected in control extracts from the same host cells carrying the plasmid vector without the rCNTF gene.

[3] = system: chick embryonic spinal motorneurons; experiment: Survival of chick embryonic spinal motorneurons in culture; type: cell-based; design: key to Survival: −: not significantly different from control (survival: 8.3 ± 3.8%, mean ± SD, n = 18); ±: about 15-20% (statistically significant from each blank control, p < 0.01); + +: about 35-55%; + ++: about 55-75%
Procedure: Motorneuron columns were dissected under a stereomicroscope from the lumbar part of the spinal cord of chick embryos on the 6th day of embryonic development and stored in cold calcium and magnesium-free Hanks balanced salt solution supplemented with glucose (4 g/l) (HBSS). The tissues were washed with HBSS and treated with 0.03% trypsin in HBSS at 37° C. for 20 min with gentle shaking, rinsed with cold HBSS and triturated mildly in 3 steps of 8-passage agitation in 1 ml of cold 0.1% soybean trypsin inhibitor (Sigma) in HBSS through a fire-polished siliconized Pasteur pipette. Each supernatant cell suspension was filtered through 50 μm-Nylon mesh, pooled and layered onto 4 ml of cold 6.8% metrizamide (Fluka) in HBSS-25 mM HEPES (pH7.4) in a 12 ml-siliconized conical glass tube. The tube was centrifuged at 400 g for 15 min at 4° C. and the intermediate layer (0.5 ml) was collected into another siliconized tube containing 6.5 ml of cold culture medium (a mixture of glucose (4 g/l)-supplemented Leibovitz's L-15 medium (Gibco), 0.15 M sodium bicarbonate, heat-inactivated and filtered horse serum and penicillin G (10^5 units/ml) at the ratio of 75:15:10:0.1, freshly prepared and buffered with 5% CO2.) After centrifugation at 100×g for 7 min at 4° C., the supernatant was removed and the cells were gently resuspended in culture medium and plated in Greiner 4-well culture dishes (well diameter, 10 mm; C. A. Greiner und Sohne GmbH, Nurtingen, West Germany) at 1000-2000 cells/well. The dishes had been precoated with poly-DL-ornithine (Sigma, 0.5 mg in 0.15 M sodium borate buffer (pH 8.3) overnight at 4° C., rinsed twice with phosphate-buffered saline (PBS) and subsequently coated with laminin (Gibco; 10 μg/ml in the serum-depleted culture medium) and placed in a 5% CO2-incubator until cell plating (5-6 hrs). Cells were incubated at 37° C. in a humidified 5% CO2- and 95% air-incubator. Samples were added one hr after plating and the culture medium changed after 24 hrs and 72 hrs. The initial cell numbers were counted 3 hrs after plating.
In some experiments motor neurons were retrogradely labeled with a fluorescent dye in vivo before cell preparation (U. Dohrman et al., 1986, Dev. Biol. 118:209-221) to identify the motor neuron cell population. A small hole was made in the shell of eggs which had been incubated for 5 days. Small pieces of rhodamine isothiocyanate crystals (Sigma) were inserted at two or three places into each hind limb thigh and the egg hole was sealed with a cellophane tape. The eggs were incubated for another 24 hrs. Some of the operated embryos were then processed for frozen sections after formaldehyde fixation. […] The other embryos were used for cell preparation using the method described above (18.1.1). After 5 hrs in culture cells were rinsed with warm HBSS, fixed with 4% formaldehyde in PBS at room temperature for 20 min, rinsed with PBS and then mounted in glycerol-PBS (1:1) with glass coverslips. Of the total cells approximately 83% were labeled and identified as motorneurons (FIG. 42.) Most of these labeled motorneurons were large cells and the rest were intermediate-size cells. No small cells were labeled. On the other hand, in experiments in which cells were not labeled with a fluorescent dye about 70% of the total cells were large phase-bright cells with round cell somas, about 20% were intermediate-size neurons (most of them may be motorneurons) and about 10% were small immature neurons (they have neuron-like processes with growth cones but have phase-dark semi-flat cell somas). Non-neuronal cells were either not present or accounted for less than 2%. Taken together, one may conclude that at least 83% of the cells are motorneurons while the remainder consists of non-labeled motorneurons, a small number of unidentified intermediate-size neurons and about 10% immature small neurons. […]

[4] = system: E8 dorsal root ganglion neurons; experiment: Survival and neurite outgrowth of dorsal root ganglion neurons / DRG assay with E. coli protein extracts; type: cell-based; details: protein extract of E. coli W3110iqF-/rCNTF-C-1; after 24 and 48 hours in vitro
Procedure: as §1
Human CNTF sequence, engineered to lack intron sequences, has been inserted into the pCP93 vector and used to transform competent E. coli.

[5] = system: GABAergic neurons (hippocampal cultures); experiment: Effect of other neurotrophic factors on GABAergic hippocampal neurons in culture; type: cell-based, rat
Procedure: Hippocampi were dissected from E18-19 rat embryos of Sprague-Dawley rats, and collected in F10 medium. The tissues were minced, rinsed twice with F10 medium (Gibco) and trypsinized with 0.25% trypsin (Gibco) for 20 minutes at 37° C. Trypsin was inactivated by the addition of a serum-containing medium composed of minimal essential medium (MEM) supplemented with fetal calf serum (FCS, 10%), glutamine (2 mM), penicillin (25 U/ml) and streptomycin (25 ug/ml). Dissociated cells obtained by gentle trituration were collected and centrifuged at low speed (500 rpm) for 30 seconds. The centrifugation was repeated twice, and the cell pellets were then resuspended in serum-containing medium. The cells were then plated onto 6 mm wells or 35 mm dishes that were coated with polyornithine (10 ug/ml) and laminin (10 ug/ml). In most of the experiments, the cells were plated at a low density of approximately 71,000 cells/cm^2. Five to six hours following the plating of cells, medium was changed to a serum-free medium containing 1% N3 and penicillin-streptomycin (25 units/ml and 25 ug/ml, respectively), at which time CNTF was added. Medium was changed every three to four days, with re-addition of the factor. […]

Row | Molecule | lowest concentration at which activity was detectable [1] [pg/mL] | amount of rCNTF at which maximal activity was seen ([2]; ciliary and dorsal root ganglion neuron cultures) | survival and neurite outgrowth of E10 rat ciliary ganglion neurons ([2]; protein extract of E. coli W3110iqF-/rCNTF-C-1, after 24 and 48 hours in vitro) | motorneurons alive after 3 days in culture ([3]; recombinant rat CNTF, 5 ng/ml) | motorneurons alive after 6 days in culture ([3]; recombinant rat CNTF, 5 ng/ml) | survival and neurite outgrowth of E8 dorsal root ganglion neurons [4] | effect on / survival of GABAergic neurons [5] | Survival ([3]; after 3 days in culture, one concentration per molecule, Table VI, CNTF rat, rec.) | survival effect on motoneurons ([3]; supramaximal concentrations, NT-3 produced by transfected Cos-cells)
1 | recombinant rat CNTF: rat ciliary neurotrophic factor expressed in E. coli (protein, UniProt P20294 1-200, looked up) Ciliary neurotrophic factor: MAFAEQTPLTLHRRDLCSRSIWLARKIRSDLTALMESYVKHQGLNKNINLDSVDGVPVASTDRWSEMTEAERLQENLQAYRTFQGMLTKLLEDQRVHFTPTEGDFHQAIHTLMLQVSAFAYQLEELMVLLEQKIPENEADGMPATVGDGGLFEKKLWGLKVLQELSQWTVRSIHDLRVISSHQMGISALESHYGAKDKQM | 2 | less than 1 nanogram | up to 50% | about 70% | about 60% | approximately 30% |  |  | 
2 | BDNF: brain derived neurotrophic factor (porcine in Table VI) (protein, UniProt P14082 134-252, looked up, Neurotrophic factor BDNF) Neurotrophic factor BDNF: HSDPARRGELSVCDSISEWVTAADKKTAVDMSGGTVTVLEKVPVSKGQLKQYFYETKCNPMGYTKEGCRGIDKRHWNSQCRTTQSYVRALTMDSKKRIGWRFIRIDTSCVCTLTIKRGR |  |  |  |  |  |  | does not seem to promote the survival | − | no discernable effect

Reference: patent US6602687B1, “DNA encoding human ciliary neurotrophic factor and method for producing the protein encoded thereby” (Regeneron Pharmaceuticals, Inc., priority 1989, dated 2003)
